For one test, the target named is T1, 14-3-3ζ/Tau pS2 peptide (Homo sapiens, UniProt P63104).
T1 construct: made in house; host or cells: NiCo21 (DE3) E. coli
T1 sequence (P63104 1-245): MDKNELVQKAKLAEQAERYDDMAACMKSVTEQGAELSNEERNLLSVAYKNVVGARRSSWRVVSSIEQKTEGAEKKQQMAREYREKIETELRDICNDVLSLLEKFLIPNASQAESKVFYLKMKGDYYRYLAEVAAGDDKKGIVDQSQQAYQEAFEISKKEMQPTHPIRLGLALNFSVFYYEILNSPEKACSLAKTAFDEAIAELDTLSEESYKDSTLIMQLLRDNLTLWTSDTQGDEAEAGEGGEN
Nature of the test: Differential scanning fluorimetry of 14-3-3 with Tau pS2 peptide and compounds. It is filed as binding. Conditions: 10-fold excess of Tau pS2 peptide relative to 14-3-3ζ. The procedure: Fig. 3 a Dose–response fluorescence anisotropy data of compound titrations to 10 nM FITC-labeled Tau pS2 peptide and 100 nM 14-3-3ζ. […] Mean of three individually performed experiments (see ESI ^† Fig. S8 for the protein titrations). e Differential scanning fluorimetry assay results. Identified melting temperatures (Tm) of 14-3-3γ alone (2.5 μM) and in the presence of Tau pS2 peptide (25 μM) and additionally with selected compounds (75 μM).
As an orthogonal method to profile the PPI stabilizing activity of selected compounds, differential scanning fluorimetry (DSF) assays were performed (Fig. 3e). […] Upon addition of compounds (1, 11, 13–14, and 20–22) to this PPI complex (30-fold compared to 14-3-3ζ), an additional increase in melting temperature between 0.9 °C and 2.1 °C was observed relative to the binary 14-3-3ζ/Tau pS2 peptide system. These observations are in agreement with the stabilization observed in the FA data and strongly testify to the molecular glue effect of our compound, by enhancing the stability of the PPI complex. […]
chromatography (HisTrap high performance cartridges, Cytiva). Typically two 5 mL columns were used for a 2 L culture in which the lysate was loaded on the column, washed with 10 CV wash buffer (50 mM Hepes, pH 8.0, 300 mM NaCl, 25 mM imidazole, 2 mM βME), and eluted with several fractions (2-4 CV) of elution buffer (50 mM Hepes, pH 8.0, 300 mM NaCl, 250 mM imidazole, 2 mM βME). Fractions containing the 14-3-3 protein were combined and dialyzed into 25 mM HEPES pH 8.0, 200 mM NaCl, 10 mM MgCl2, 2 mM βME, followed by dialysis into 25 mM HEPES, 100 mM NaCl, 10 mM MgCl2, 500 μM TCEP (adjusted to pH 8.0). Dialyzed protein was concentrated to ∼40 mg/mL, analyzed by Q -Tof LC/MS, and aliquots were flash -frozen for storage at −80 °C. For 14 -3-3σ∆c, 1 mg TEV per 100 mg purified protein was added to the dialysis to remove the purification tag. The cleaved sample was then again loaded on a 10 mL Ni-NTA column to separate the cleaved product from the expression tag and residual uncleaved protein. The flowthrough was loade d on a Superdex 75 pg 16/60 size exclusion column (GE Life Sciences) using 25 mM HEPES, 100 mM NaCl, 10 mM MgCl2, 500 μM TCEP (adjusted to pH = 8.0) as running buffer. Fractions containing the 14 -3-3 protein were pooled and concentrated to ∼60 mg/mL, analyzed Q -Tof LC/MS, and aliquots were flash -frozen for storage at −80°C. […]
The peptide screen was performed in a similar way as the 14-3-3ζ titration in the precence of compound.
14-3-3ζ was titrated in a 2-fold dilution series (starting at 400 µM 14-3-3ζ) to 100 nM of fluorescein-labeled peptides and 250 µM compound 18 (1% DMSO) in FA buffer (10 mM HEPES pH 7.4, 150 mM […]
Data shown is the average of a scientific triplicate.
Differential Scanning Fluorimetry (DSF)
DSF was performed using 40 µl samples containing 2.5 µM 14 -3-3ζ, 25 µM Tau peptide (Tau pS2, Tau pS214 or Tau pS324), […] (1% DMSO) and 5x ProteoOrange (Lumiprobe, 5000x stock in DMSO) in 10 mM HEPES, 150 mM NaCl, 50 µM TCEP (pH 7.4). The samples were heated from 35 °C to 79°C at a rate of 0.3 °C per 15 s in a C FX96 Touch Real-Time PCR Detection System (Bio -Rad). Fluorescence intensity was determined using excitation ( λem=525/20 nm) and emission ( λex=570/20 nm) filters.
Based on these melting curves, the negative derivative melting curve is obtained from which the melting temperature Tm was determined. All described melting temperatures are based on two or three independent experiments, from which the average and standard deviations were determined.
X-ray crystallography data collection and refinement
For x-ray crystallography, a C-terminally truncated 14-3-3σ protein (truncated after T231 to reduce flexibility) was used. This 14-3-3σ∆C was preincubated with Tau pS214 in complexation buffer (20 mM HEPES pH 7.5, 2 mM MgCl2 and 100 μM TCEP) in a 1:1.5 molar stoichiometry (protein:peptide) at a final protein concentration of 10.0 mg/mL. […]
A general note: In DSF a fluorescence change marks the thermal transition of the protein.

Another test has as its target 14-3-3ζ. Also noted: method as in doi:10.1101/2024.03.15.585148. The note with it: FA assay, binary complex; read-out: KD of bivalent Tau pS2 peptide to 14-3-3ζ; cited from earlier work.

Square brackets hold non-standard residues; d marks the D form. Ends that are not written are not given here. pS = N[C@@H](COP(=O)(O)O)C(=O)O

Take “Tau pS2 peptide: bivalent Tau peptide phosphorylated at S214 + S324: SRTP{pS}LPTPPTREGGGSGGGSGGGVTSKCG{pS}LGNIHHK (chain 1 SRTP[pS]LPTPPTREGGGSGGGSGGGVTSKCG[pS]; numbers in words are those of the source; also: chains 1 and 2 are one continuous peptide joined through pS324) [reference compound]”: the “ΔTm, increase of 14-3-3 melting temperature compared to apo-14-3-3ζ” value with 14-3-3ζ/Tau pS2 peptide was around 0.6 °C. In addition, the Kd at 14-3-3ζ was 945 ± 70 nM.

The values above are taken from publication PMC11892739, “Site-specific molecular glues for the 14-3-3/Tau pS214 protein–protein interaction via reversible covalent imine tethering” (RSC Medicinal Chemistry, 2025).
